Consider 3 variants from IntAct's records for PubMed 22000520.

B1: Serine/threonine-protein kinase PknB (Mycobacterium tuberculosis (strain ATCC 25618 / P9WI81 (parent)
chain: MTTPSHLSDRYELGEILGFGGMSEVHLARDLRLHRDVAVKVLRADLARDPSFYLRFRREAQNAAALNHPAIVAVYDTGEAETPAGPLPYIVMEYVDGVTLRDIVHTEGPMTPKRAIEVIADACQALNFSHQNGIIHRDVKPANIMISATNAVKVMDFGIARAIADSGNSVTQTAAVIGTAQYLSPEQARGDSVDARSDVYSLGCVLYEVLTGEPPFTGDSPVSVAYQHVREDPIPPSARHEGLSADLDAVVLKALAKNPENRYQTAAEMRADLVRVHNGEPPEAPKVLTDAERTSLLSSAAGNLSGPRTDPLPRQDLDDTDRDRSIGSVGRWVAVVAVLAVLTVVVTIAINTFGGITRDVQVPDVRGQSSADAIATLQNRGFKIRTLQKPDSTIPPDHVIGTDPAANTSVSAGDEITVNVSTGPEQREIPDVSTLTYAEAVKKLTAAGFGRFKQANSPSTPELVGKVIGTNPPANQTSAITNVVIIIVGSGPATKDIPDVAGQTVDVAQKNLNVYGFTKFSQASVDSPRPAGEVTGTNPPAGTTVPVDSVIELQVSKGNQFVMPDLSGMFWVDAEPRLRALGWTGMLDKGADVDAGGSQHNRVVYQNPPAGTGVNRDGIITLRFGQ
partner: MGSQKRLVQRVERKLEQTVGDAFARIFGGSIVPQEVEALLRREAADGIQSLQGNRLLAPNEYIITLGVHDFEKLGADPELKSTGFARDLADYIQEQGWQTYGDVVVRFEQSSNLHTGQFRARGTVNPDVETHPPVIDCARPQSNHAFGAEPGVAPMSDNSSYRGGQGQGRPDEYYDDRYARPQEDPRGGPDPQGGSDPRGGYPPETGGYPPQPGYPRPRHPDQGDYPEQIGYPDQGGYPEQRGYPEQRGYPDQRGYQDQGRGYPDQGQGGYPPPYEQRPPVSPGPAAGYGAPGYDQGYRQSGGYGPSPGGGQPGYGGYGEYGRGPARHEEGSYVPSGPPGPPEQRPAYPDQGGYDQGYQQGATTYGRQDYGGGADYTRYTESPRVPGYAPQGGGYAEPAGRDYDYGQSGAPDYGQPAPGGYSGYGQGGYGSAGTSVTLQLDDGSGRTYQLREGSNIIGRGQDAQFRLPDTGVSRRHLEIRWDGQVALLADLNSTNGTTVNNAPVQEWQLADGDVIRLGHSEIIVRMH
B2: FHA domain-containing protein FhaA (Mycobacterium tuberculosis (strain ATCC 25618 / P71590 (parent)
chain: B1 partner
partner: B1 chain

The variants in one assay derive from B1. Particulars: with fhaa_myctu fhaA.
Turning to T294A, the “effect of a mutation on the interaction” value was “increasing interaction”.

With T309A, the “effect of a mutation on the interaction” value is reported as “increasing interaction”.

Another assay covers variants of B2. To be noted: with pknb_myctu pknB.
On to T116A, for which the “effect of a mutation on the interaction” value is given as “disrupting interaction”.
